Results on 5 molecules are retold here after patent US20030114402A1, “Modulators of DNA cytosine-5 methyltransferase and methods for use thereof” (The Regents of the University of California, priority 1997, published 2003).

For series [1] the following is noted: Jones, 1996; cited from earlier work.
The conditions of series [2]: Jones, 1996; cited from earlier work. This is another data set of the same source.
Series [3] concerns the target T1, DCMTase (Mus musculus, UniProt P13864).
T1 construct: DCMTase was purified from mouse erythroleukemia cells as previously described; endogenous in cells; host or cells: mouse erythroleukemia (MEL) cells; enzyme purified from them
Briefly: Steady-state kinetic assay: initial velocity, substrate inhibition, DNA length. It counts as biochemical. The following applies: concentrations up to 30 times Km^AdoMet. How it is done:
After preincubation at room temperature for up to 10 minutes, reactions were initiated by the addition of poly(dI.dC:dI.dC) and, if indicated, inhibitor DNA or reaction products. […] Single-stranded DNA was heated to 90° C. and quick cooled on ice, prior to initiation of the reaction. Freeze-thawed DNA produced equivalent results. Incubations were at 37° C. for 60 minutes. The poly(dI.dC:dI.dC) concentrations were 2.0, 4.0, 8.0, 16, 35, 80, 160, 250, 400, 700 and 1000 pM. In some experiments, GC-box a/b was the substrate, using 100 nM DCMTase and DNA concentrations of 0.20, 0.40, 1.0, 2.0, 4.0, 8.0, 15, 23 and 35 μM. […] The radioactivity above the background, determined from assays without added poly(dI.dC:dI.dC), was converted to initial velocities and expressed as picomoles of methyl groups transferred to poly(dI.dC:dI.dC) per hour and plotted in double reciprocal form. […]
The Michaelis-Menton equation was used for studies into DNA length contributions to catalysis using KaliedaGraph 2.1.2 (Synergy Software). […] All steady-state data were analyzed using regression analyses of the appropriate initial velocity equation, listed below, using the Cleland programs (Cleland, W. W., 1979, Statistical analysis of enzyme kinetic data. Methods in Enzymol. 63:103-138). […]

Series [4] deals with T2, DNA cytosine-5 methyltransferase (DCMTase, Dnmt1) (Mus musculus, UniProt P13864 P13864:1-1620). Nature of the series: inhibition; substrate inhibition; KmDNA 0.31 +/- 0.13 µM. The following applies: tags: none; purified from mouse erythroleukemia (MEL) cells; label: 32P (gel shift). On the procedure:
To distinguish between this and alternative explanations, a short 30 base-pair DNA substrate was tested for inhibition at high concentrations. […] Initial velocity data for both substrates were fit to equation 1, which is a standard equation for analyzing substrate inhibition. Kₘ^DNA was determined to be 5.5+/−0.9 pM and 0.31+/−0.13 μM, and Kᵢ^DNA was 1010+/−170 pM and 43+/−22 μM for poly(dI.dC:dI.dC) and GC-box a/b, respectively (Table 3). In both cases, DNA concentrations greater than 20 times Kₘ^DNA caused substrate inhibition. AdoMet utilization was calculated to be less than 0.5%. Product inhibition by S-adenosyl homocysteine formation is therefore unlikely. AdoMet substrate inhibition was not observed at concentrations up to 30 times Kₘ^AdoMet. The substrate inhibition observed implicates a second DNA molecule binding to the enzyme and inhibiting catalysis.
(In general: Mobility shift assays separate free from complexed probe on a gel.)

In series [5] the target is T2, DNA cytosine-5 methyltransferase …. Nature of the series: EMSA; unit printed as mM (text indicates micromolar); Hepes pH 7.4, 10 mM EDTA, on ice. The following applies: tags: none; purified from mouse erythroleukemia (MEL) cells; label: 32P (gel shift). On the procedure:
(§1) Gel mobility shift assays (GMSA) were performed with minor revisions to the original procedures (Fried, M., & Crothers, D. M., 1981, Equilibria and kinetics of the lac repressor-operator interactions by polyacrylamide gel electrophoresis, Nucleic Acids Res. 9:6505-6525; Garner, M. M. & Revzin, A., 1981, A gel electrophoresis method for quantifying the binding proteins to specific DNA regions: applications to components of the Escherichia coli lactose operon regulatory system, Nucleic Acids Res. 13:3047-3060). […]
(§2) Steady-state kinetic analyses of the DCMTase with the same 30 base-pair DNA substrates used in these studies indicate that Kₘ^DNA is 1000- to 50,000-fold higher (Flynn, J., et al., 1996, Murine DNA cytosine-C5 methyltransferase: Pre-steady- and steady-state kinetic analyses with regulatory DNA sequences, Biochemistry 35:7308-7315) than the DNA concentrations used to generate FIG. 2 and used by Reale et al, 1995, supra. […] Therefore, the stability of protein:DNA was determined by keeping the enzyme at a constant concentration (100 nM) and varying the amount of added DNA (Dubey & Roberts, 1992, supra).

For series [6] the target is unchanged. Nature of the series: EMSA; unit printed as mM (text indicates micromolar); free enzyme. The following applies: tags: none; purified from mouse erythroleukemia (MEL) cells. How it is done:
as §1, §2

For series [7] the target is unchanged. Nature of the series: inhibition; Kii, uncompetitive with poly(dIdC:dIdC); 25 +/- 10 nM competitive with AdoMet; calculated KI 2.5 nM for DCMTase:poly(dIdC:dIdC) complex; Tris pH 8.0, 10 mM EDTA. The following applies: tags: none; purified from mouse erythroleukemia (MEL) cells.
Series [8] shares this target. Briefly: inhibition; Kis, noncompetitive with poly(dIdC:dIdC); Kii 6800 +/- 1200 nM; Tris pH 8.0, 37 C. The following applies: tags: none; purified from mouse erythroleukemia (MEL) cells. How it is done:
For these reasons it was presumed that single-stranded GC-box substrates could act as dead-end inhibitors of the reaction with poly(dI.dC:dI.dC). Dead-end inhibitors can provide a strong methodology for assessing whether a kinetic mechanism is random or ordered. Inhibition of poly(dI.dC:dI.dC) methylation by single-stranded GC-box b was studied at 15 μM AdoMet. The data were best fit by equation 5, a standard equation for noncompetitive inhibition, and generated the intersecting double reciprocal pattern shown in FIG. 13. The inhibition constants were determined to be Kᵢₛ=3.6+/−1.5 μM and Kᵢᵢ=6.8+/−1.2 μM (Table 4). Kᵢᵢ is the inhibition constant associated with an intercept effect and Kᵢₛ is the inhibition constant associated with a slope effect from families of double reciprocal plots.

Series [9] shares this target. Nature of the series: EMSA; unit printed as mM (text indicates micromolar). The following applies: tags: none; purified from mouse erythroleukemia (MEL) cells. On the procedure:
Gel mobility shift assays (GMSA) were performed with minor revisions to the original procedures (Fried, M., & Crothers, D. M., 1981, Equilibria and kinetics of the lac repressor-operator interactions by polyacrylamide gel electrophoresis, Nucleic Acids Res. 9:6505-6525; Garner, M. M. & Revzin, A., 1981, A gel electrophoresis method for quantifying the binding proteins to specific DNA regions: applications to components of the Escherichia coli lactose operon regulatory system, Nucleic Acids Res. 13:3047-3060). All reactions were done in 100 mM Hepes pH 7.4, 10 mM EDTA, 10 mM DTT, […], 5% glycerol using the indicated P-labeled DNA and DCMTase concentrations, incubated on ice for 5 minutes and loaded on a 1×TBE(89 mM Tris-HCl pH 8.3, 89 mM boric acid, 2 mM EDTA), 6% polyacrylamide gel. Electrophoresis was done at 250 V, 9 mA for 2 hours at 4° C. and the dried gel was exposed to film overnight. The reaction conditions for buffer, temperature, incubation time, cofactor addition and gel composition have all been optimized. Only slightly better complex resolution was obtained under the listed conditions compared to a 10 minute incubation at 37° C. prior to gel loading at room temperature and containing either cofactor S-adenosyl-L-methionine, product S-adenosyl-L-homocysteine, or the AdoMet analog sinefungin. Hepes reaction buffer at pH 7.4 produced sharper banding than Tris-HCl at pH 8.0. […] Subsequent assays used a limiting and constant enzyme concentration with varying DNA concentrations.
as §2

T2 sequence (P13864 whole entry, one chain of several): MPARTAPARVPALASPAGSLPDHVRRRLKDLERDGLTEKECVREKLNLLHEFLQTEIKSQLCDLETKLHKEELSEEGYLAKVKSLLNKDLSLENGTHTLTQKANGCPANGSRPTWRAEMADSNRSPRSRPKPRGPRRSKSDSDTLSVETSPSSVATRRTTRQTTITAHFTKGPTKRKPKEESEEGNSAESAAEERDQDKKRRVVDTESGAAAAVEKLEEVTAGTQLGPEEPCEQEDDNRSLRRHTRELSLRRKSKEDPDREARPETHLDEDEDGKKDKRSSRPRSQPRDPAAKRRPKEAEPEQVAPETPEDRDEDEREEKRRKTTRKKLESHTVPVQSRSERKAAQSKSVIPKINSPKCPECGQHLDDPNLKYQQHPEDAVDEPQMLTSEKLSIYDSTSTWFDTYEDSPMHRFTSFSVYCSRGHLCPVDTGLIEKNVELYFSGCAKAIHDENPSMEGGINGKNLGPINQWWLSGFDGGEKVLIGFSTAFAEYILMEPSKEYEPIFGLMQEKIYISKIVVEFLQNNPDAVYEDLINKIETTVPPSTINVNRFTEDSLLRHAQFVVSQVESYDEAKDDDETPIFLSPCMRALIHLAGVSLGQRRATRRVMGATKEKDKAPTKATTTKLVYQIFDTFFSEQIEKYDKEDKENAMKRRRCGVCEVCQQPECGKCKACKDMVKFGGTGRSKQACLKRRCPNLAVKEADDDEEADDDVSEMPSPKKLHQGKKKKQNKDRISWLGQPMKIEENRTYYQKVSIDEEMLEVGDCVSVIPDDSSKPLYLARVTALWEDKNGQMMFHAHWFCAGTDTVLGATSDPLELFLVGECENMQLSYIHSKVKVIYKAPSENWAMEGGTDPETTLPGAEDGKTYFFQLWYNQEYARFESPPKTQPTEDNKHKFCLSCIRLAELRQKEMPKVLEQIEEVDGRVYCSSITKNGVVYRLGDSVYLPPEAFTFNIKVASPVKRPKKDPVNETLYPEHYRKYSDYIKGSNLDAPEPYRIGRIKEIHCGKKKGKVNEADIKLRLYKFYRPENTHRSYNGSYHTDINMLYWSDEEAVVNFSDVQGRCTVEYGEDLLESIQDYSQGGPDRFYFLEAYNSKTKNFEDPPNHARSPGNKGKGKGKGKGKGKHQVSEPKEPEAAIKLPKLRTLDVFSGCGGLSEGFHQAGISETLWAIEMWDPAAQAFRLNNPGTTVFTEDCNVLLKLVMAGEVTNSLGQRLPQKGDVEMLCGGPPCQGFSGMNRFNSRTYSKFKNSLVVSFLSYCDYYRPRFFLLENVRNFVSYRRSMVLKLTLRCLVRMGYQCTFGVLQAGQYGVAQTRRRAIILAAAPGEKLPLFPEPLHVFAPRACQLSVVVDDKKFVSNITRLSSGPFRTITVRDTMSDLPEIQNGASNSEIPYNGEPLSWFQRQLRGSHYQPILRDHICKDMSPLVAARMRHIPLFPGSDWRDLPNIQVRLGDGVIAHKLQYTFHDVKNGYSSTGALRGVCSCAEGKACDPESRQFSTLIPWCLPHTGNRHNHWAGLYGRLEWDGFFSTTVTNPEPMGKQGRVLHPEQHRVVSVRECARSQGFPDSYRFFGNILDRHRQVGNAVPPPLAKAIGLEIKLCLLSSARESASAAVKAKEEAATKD
T1 sequence (P13864 whole entry): as the sequence (P13864 whole entry, one chain of several) above

`Nc1ncn([C@H]2C[C@H](O)[C@@H](CO)O2)c(=O)n1` [5-Aza-deoxycytidine, 5-aza-2′-deoxycytidine]: in [1], the stability in solution result is listed as “unstable in solution”. Further, the carcinogenicity and mutagenicity entry in series [2] is recorded as “may be carcinogenic as well as mutagenic”. Consider `C[S+](CC[C@H](N)C(=O)[O-])C[C@H]1O[C@@H](n2cnc3c(N)ncnc32)[C@H](O)[C@@H]1O` (stereo partly drawn) [AdoMet, S-adenosyl-L-methionine], for which, in series [3], the AdoMet substrate inhibition entry was “not observed”.

B1: GC-box a/b (dsDNA)
DNA 1: GGGAATTCAAGGGGCGGGGCAAGGATCCAG
DNA 2: CTGGATCCTTGCCCCGCCCCTTGAATTCCC
One may read the Kd as a measure of binding affinity in units of concentration. As for B1, the Ki in [4] turned out to be 43000 nM. Moreover, in [5], the Kd was determined as 420 nM. CTGGATCCTTGCCCCGCCCCTTGAATTCCC (ssDNA, 5mC at position 15 (central CpG)) [GC-box bMET] returned a dissociation constant (Kd) in series [6] of 880 nM. Moreover, the Ki in [7] is 20 nM. With CTGGATCCTTGCCCCGCCCCTTGAATTCCC (ssDNA) [GC-box b], the Ki in series [8] turned out to be 3600 nM. In series [9], this molecule registered a Kd of 1300 nM.
